Assay [1] concerns central trigeminovascular neurons in the medullary dorsal horn. Description: Activation of central trigeminovascular neurons by picrotoxin-induced seizure. To be noted: 30 mg/kg intravenously four hours before induction of seizure. Format: in vivo, rat. The text has this: Cortical electrodes were used to trace the magnitude, extent and progression of epileptiform seizures.
Surgical preparation and single-unit recording. Single-unit recordings were obtained from neurons in the trigeminal ganglion and dorsal horn as described in previous studies (Burstein et al. (1998) J. Neurophysiol. 79: 964-82; Strassman and Levy (2006) J. Neurophysiol. 95: 1298-306; Strassman et al. (1996) Nature 384: 560-4; Zhang et al. (2010) J. Neurosci. 30: 8807-14; and Zhang et al. (2011) Ann. Neurol. 69: 855-65). Experiments were done in adult Sprague-Dawley rats (250 g to 350 g). Animals were anesthetized with urethane (1.2-1.5 g/kg), artificially ventilated with oxygen, and paralyzed. Body temperature was controlled, and end-tidal CO2 and oxygen saturation was monitored. For ganglion recordings, four separate craniotomies were made: over the contralateral cortex, to advance the microelectrode; over the ipsilateral parietal cortex, and the ipsilateral occipital cortex, for application of the picrotoxin and recording of electrocorticogram activity; and over the ipsilateral transverse sinus, for electrical and mechanical stimulation of dural afferents, and lidocaine application. For dorsal horn recording, the same craniotomies were made over the ipsilateral cortex and the ipsilateral transverse sinus, but no contralateral craniotomy was made. Instead, a laminectomy was made to expose the upper cervical spinal cord (C1-2) for microelectrode recording. In both the trigeminal ganglion and the dorsal horn recording experiments, the search stimulus for finding dura-sensitive neurons is single-shock electrical stimulation applied to the dura covering the transverse sinus.
Seizure induction and electrocorticogram recording. […] For verification of seizure induction, cortical activity was recorded with a glass micropipette (0.9% saline, ˜1 megohm, 7 μm tip) placed just below the surface of the cerebral cortex, at the parietal and the occipital site. […]

The test system of assay [2] is naïve wide-dynamic range (WDR) trigeminovascular neurons. Description: Single-unit recording of naïve central trigeminovascular neurons, WDR neurons. The note with it: 30 mg/kg IV. The class given is in vivo, rat. The text has this: Experiments were approved by the Beth Israel Deaconess Medical Center and Harvard Medical School standing committees on animal care, and in accordance with the U.S. National Institutes of Health Guide for the Care and Use of Laboratory Animals. Male and female Sprague-Dawley rats (250-350 g) were anesthetized with urethane (0.9-1.2 g/kg i.p.). They were fitted with an intra-tracheal tube to allow artificial ventilation (0.1 L/min of (O2), and an intra-femoral-vein cannula for later infusion of drugs. Rats were placed in a stereotaxic apparatus, and core temperature was kept at 37° C. using a heating blanket. End-tidal […] was continuously monitored and kept within physiological range (3.5-4.5 pCO2). Once stabilized, rats were paralyzed with rocuronium bromide (10 mg/ml, 1 ml/hr continuous intravenous infusion) and ventilated. For stimulation of the cranial dura later in the experiment, a 5×5-mm opening was carefully carved in the parietal and occipital bones in front and behind the lambda suture, directly above the left transverse sinus. The exposed dura was kept moist using a modified synthetic interstitial fluid (135 mM NaCl, 5 mM KCl, 1 mM MgCl2, 5 mM CaCl2, 10 mM glucose and 10 mM Hepes, pH 7.2). […]
To record neuronal activity, a tungsten microelectrode (impedance 3-4 MΩ) was lowered repeatedly into the spinal trigeminal nucleus (STN) in search of central trigeminovascular neurons receiving convergent input from the dura and facial skin. […] Responses to mechanical stimulation of the skin were determined by applying brief (10 s) innocuous and noxious stimuli to the most sensitive portion of the cutaneous receptive field. […] Real-time waveform discriminator was used to create and store a template for the action potential evoked in the neuron under study by electrical pulses on the dura; spikes of activity matching the template waveform were acquired and analyzed online and offline using Spike 2 software (CED, Cambridge, UK). […]

B1: fremanezumab (antibody)
heavy: EVQLVESGGGLVQPGGSLRLSCAASGFTFSNYWISWVRQAPGKGLEWVAEIRSESDASATHYAEAVKGRFTISRDNAKNSLYLQMNSLRAEDTAVYYCLAYFDYGLAIQNYWGQGTLVTVSSASTKGPSVFPLAPCSRSTSESTAALGCLVKDYFPEPVTVSWNSGALTSGVHTFPAVLQSSGLYSLSSVVTVPSSNFGTQTYTCNVDHKPSNTKVDKTVERKCCVECPPCPAPPVAGPSVFLFPPKPKDTLMISRTPEVTCVVVDVSHEDPEVQFNWYVDGVEVHNAKTKPREEQFNSTFRVVSVLTVVHQDWLNGKEYKCKVSNKGLPSSIEKTISKTKGQPREPQVYTLPPSREEMTKNQVSLTCLVKGFYPSDIAVEWESNGQPENNYKTTPPMLDSDGSFFLYSKLTVDKSRWQQGNVFSCSVMHEALHNHYTQKSLSLSPGK
light: EIVLTQSPATLSLSPGERATLSCKASKRVTTYVSWYQQKPGQAPRLLIYGASNRYLGIPARFSGSGSGTDFTLTISSLEPEDFAVYYCSQSYNYPYTFGQGTKLEIKRTVAAPSVFIFPPSDEQLKSGTASVVCLLNNFYPREAKVQWKVDNALQSGNSQESVTEQDSKDSTYSLSSTLTLSKADYEKHKVYACEVTHQGLSSPVTKSFNRGEC
notes: humanized anti-CGRP antagonist antibody, vectors ATCC PTA-6867 and PTA-6866
As to B1, in assay [1], the “neurons activated by the seizure” value is given as 15% and the “neurons activated by the seizure (activated/tested)” value is reported as 2/13. Moreover, in assay [1] (FIG. 24), the “activation of central trigeminovascular neuron by seizure” value is “prevented the activation of a central trigeminovascular neuron”. Also, the “spontaneous activity of WDR neurons” value in assay [2] (female rats) is on record as “did not reduce the spontaneous activity”. In addition, in assay [2] (male and female rats), the “sensitivity of WDR neurons to mechanical stimulation of the dura” value is “not the WDR neurons”. Moreover, in assay [2] (male or female rats), the “responses of WDR neurons to innocuous (brush, pressure) or noxious (pinch) mechanical stimulation of the skin or the cornea” value is “did not alter the responses”.

Source of the values: patent publication US10766952B2, “Methods for reducing migraine frequency in a subject in need thereof” (Beth Israel Deaconess Medical Center, Inc., priority 2017, dated 2020).
